Measurements as given in US20190038774A1.

Biological target: MHCI antigen presented on MNs
Experiment: cell-based or functional assay

## killer cell immunoglobulin-like receptor 3DL2 (KIR3DL2) (from UniProt P43630 22-455)
  MN death on co-culture with kir3dl2 shRNA treated ALS astrocytes, day 7: 50%
